Experimental data published in the supplement of paper PMC7125110.
± gives the standard error. Variants at the floor of the assay were thinned out.

B1: glmS ribozyme (parent)
chain: AUAAAAGCGCCAGAACUACAGAAAUGUAGUUGACGAGGAGGAGGUUUAUCGAAUUUUCGGCGGAUGCCUCCAAA

Variants of: B1
Experiment: self-cleavage kobs at 10000 uM GlcN6P; higher = faster cleavage; RNA array
Details: with glucosamine-6-phosphate
In short: (§1)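 On sequenced MiSeq chips, barcoded ribozyme variants were made in situ by E. coli RNA polymerase and followed at 37 °C through a hybridised Cy3 probe. Glucosamine-6-phosphate was flowed in at 40 μM to 10 mM in HEPES/KCl/Mg(OAc)2 buffer. Exponential fits to normalised per-tile medians gave kobs, and weighted Michaelis–Menten fits gave kcat and KM.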

Variant | self-cleavage kobs at 10000 uM GlcN6P
C11U A64U C67G | < 1e-05 s⁻¹
G9C C11U C61G | 0.000219 ± 4.5e-05 s⁻¹
A6C C10G U31A G43U C70U | < 1e-05 s⁻¹
G7A A48G U65A | < 1e-05 s⁻¹
C8A A14U A15G G29A | < 1e-05 s⁻¹
C11G G60U U69G | < 1e-05 s⁻¹
A12C U30A U47A G51U | < 1e-05 s⁻¹
G9U G35C A42C | < 1e-05 s⁻¹
C11U A15G C58G C68U | 0.000112 ± 2.5e-05 s⁻¹
C8G C16U A53G C61U | < 1e-05 s⁻¹
A12C G13C G32A A39U | 5.7e-05 ± 1e-05 s⁻¹
A42C A48U G66C | < 1e-05 s⁻¹
C8A A39U U47G | < 1e-05 s⁻¹
C11U A15G C16U C50G U54G U56A U69C | < 1e-05 s⁻¹
G7U C61U C70A | < 1e-05 s⁻¹
G7U G29C A48G C50G C71A | 0.00097 ± 0.00047 s⁻¹
U54G C58G A64G C71U | 4.18e-05 ± 1.4e-05 s⁻¹
G7U G9U G44A C68G | < 1e-05 s⁻¹
C8A A36G U57C | < 1e-05 s⁻¹
C10A C16U A52C | < 1e-05 s⁻¹
A6U G38A G66C | < 1e-05 s⁻¹
C11A U31C U45A | 4.34e-05 ± 1.5e-05 s⁻¹
G7A G29C U47G A53G | < 1e-05 s⁻¹
A6G U55G C70U | 8.99e-05 ± 1.5e-05 s⁻¹
C8A C11U C34U A39U C58A C67U | < 1e-05 s⁻¹
G7C C50G C61A | 4e-05 ± 1.9e-05 s⁻¹
C50G U57C C71G | 9.26e-05 ± 3.1e-05 s⁻¹
A12C C68G | 2.93e-05 ± 8.5e-06 s⁻¹

Variant | self-cleavage kobs at 10000 uM GlcN6P
C8A A42G G66U | < 1e-05 s⁻¹
G9A G60U C70G | < 1e-05 s⁻¹
C8A A15G A39C C70G | < 1e-05 s⁻¹
C8U U45A A48G C70G | < 1e-05 s⁻¹
G9U A15C G62A | < 1e-05 s⁻¹
C10G C34A C67G | 0.00066 ± 0.00026 s⁻¹
A6C G59A G66A | < 1e-05 s⁻¹
A6U A39C G43U G51U C70G C71A | < 1e-05 s⁻¹
C10U G37C G43C U47C | < 1e-05 s⁻¹
G7C G35U G38U | < 1e-05 s⁻¹
A52U U57A C67U | 0.000894 ± 0.0002 s⁻¹
G7A C34U A42C | < 1e-05 s⁻¹
C10G A14C G63U | < 1e-05 s⁻¹
C10G G40U U46C C71U | < 1e-05 s⁻¹
C10A G37C G51A | < 1e-05 s⁻¹
G7C G9U A14G | < 1e-05 s⁻¹
C10U G13C G51A A53U A64G G66A | < 1e-05 s⁻¹
C11U A15G A52G | 0.0001 ± 2.4e-05 s⁻¹
C10U A15C U31C | < 1e-05 s⁻¹
C11G A42U C50G C67U | 0.000569 ± 0.00021 s⁻¹
C10U A33G G35C U45G C68U | < 1e-05 s⁻¹
C8A G44A U46G C70G | < 1e-05 s⁻¹
C10G A39U A48C | < 1e-05 s⁻¹
A64G U65C | 0.000113 ± 1.6e-05 s⁻¹
A6C G32U C50A | < 1e-05 s⁻¹
C11U G32U G35U A64U | < 1e-05 s⁻¹
C8U G51U U69A | 0.000401 ± 0.00014 s⁻¹

Variants of: B1
Experiment: self-cleavage kobs at 2500 uM GlcN6P; higher = faster cleavage; RNA array
Details: with glucosamine-6-phosphate
In short: as §1

Variant | self-cleavage kobs at 2500 uM GlcN6P
U47C C58A C68U | 3.93e-05 ± 1.6e-05 s⁻¹
A48G C58G G63A C70A | 7.77e-05 ± 3.7e-05 s⁻¹
G44U U56C U57A | < 1e-05 s⁻¹
G40U G41A C67A C70U | 0.000143 ± 3.7e-05 s⁻¹
A42C A48U G66C | < 1e-05 s⁻¹
C50U C70U C71A | 0.000152 ± 4e-05 s⁻¹
A42G U65C | 0.000535 ± 0.00016 s⁻¹
U47G C50A A64C | 0.000126 ± 3.2e-05 s⁻¹
U45C G66U C70G | 7.12e-05 ± 3.1e-05 s⁻¹
U54G C58G A64G C71U | 5.26e-05 ± 2.3e-05 s⁻¹
G43C U47A G62U C71U | < 1e-05 s⁻¹
G40U G51C C58U G60U G66U | < 1e-05 s⁻¹
G44A U49C G62U | < 1e-05 s⁻¹
G43A U47G C61G | < 1e-05 s⁻¹
A42U U56A U69G | 0.00299 ± 0.00059 s⁻¹
G40U A48C C50U | < 1e-05 s⁻¹

Variant | self-cleavage kobs at 2500 uM GlcN6P
A52U G59U A64U C70U | < 1e-05 s⁻¹
U54A G63A C70U | < 1e-05 s⁻¹
C50G U57C C71G | 0.000255 ± 0.00012 s⁻¹
G51U A52U U54G U55C | < 1e-05 s⁻¹
U55A A64C C71U | 7.29e-05 ± 3.2e-05 s⁻¹
G41U G51U G62C | < 1e-05 s⁻¹
A52U U57A C67U | 0.000441 ± 9.6e-05 s⁻¹
A42U U55A G60U G63C | < 1e-05 s⁻¹
C58A U65G C70U | 6.2e-05 ± 2.7e-05 s⁻¹
U45G C50U U56G G59C | < 1e-05 s⁻¹
A52G A64G C68U | 6.71e-05 ± 2.2e-05 s⁻¹
A48U C50A U65G | < 1e-05 s⁻¹
C58U U65A C68G | 0.000102 ± 3.1e-05 s⁻¹
A64G U65C | 8.88e-05 ± 2.5e-05 s⁻¹
A52G U54G C68G | 7.13e-05 ± 2.9e-05 s⁻¹
